Measured values published in US20180127502A1 (Memorial Sloan Kettering, published 2018).
Substitutions are numbered along the chain they refer to.

B1: anti-PD-1 clone 26 monoclonal antibody (antibody, V domains shown)
VH: QVQLVESGGGLVQPGGSLRLSCAASGYTRNKFSSYAMSWVRQAPGKGLEWVSGISGSGGTTYYADSVKGRFTISRDNSKNTQYLQLDSLRAEDTAVYYCARWYSSYYDVWGQGTLVTVSS
VL: QSVLTQPPSVSVAPGKTARITCGGNNIGSKSVHWYQQKPGQAPVLVIYYDSDRPSGIPERFSGSNSGNTATLTISRVEAGDEADYYCQVWDNHSDVVFGGGTKLTVLG
notes: also called Clone 26 mAb; ET130-26
B2: anti-PD-1 clone 27 monoclonal antibody (antibody, V domains shown)
VH: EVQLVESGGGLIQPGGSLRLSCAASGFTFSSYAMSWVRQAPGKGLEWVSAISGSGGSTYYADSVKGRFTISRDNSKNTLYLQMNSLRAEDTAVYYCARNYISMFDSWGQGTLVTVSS
VL: B1 VL with K38R, N92S, H93S, V96Y, G100I, L104V
notes: also called Clone 27 mAb; E27 mAb
B3: anti-PD-1 clone 23 monoclonal antibody (antibody, V domains shown)
VH: EVQLVQSGAEVKKPGDSVKVSCKASGYTFTRFGFSWVRQAPGQGLEWMGWISVNNGNTKYAQKYQGRVTMTTDTSTSTAYMELRSLRSDDTAVYYCARYMYGRRDSWGQGTLVTVSS
VL: QAVLTQPPSMSEAPRQRVTISCSGSSSNIGNNAVNWYQQLPGKAPKLLIYYNDLLSSGVSDRFSGSKSGTSASLAISGLQSEDEADYYCAAWDDSVNGYVFGTGTKVTVLG
notes: also called Clone 23 mAb; ET130-23
B4: anti-PD-1 scFv-Fc clone 26 (scFv linked to murine Fc) (Fc fusion)
chain: QSVLTQPPSVSVAPGKTARITCGGNNIGSKSVHWYQQKPGQAPVLVIYYDSDRPSGIPERFSGSNSGNTATLTISRVEAGDEADYYCQVWDNHSDVVFGGGTKLTVLGGGGGSGGGGSGGGGSQVQLVESGGGLVQPGGSLRLSCAASGYTRNKFSSYAMSWVRQAPGKGLEWVSGISGSGGTTYYADSVKGRFTISRDNSKNTQYLQLDSLRAEDTAVYYCARWYSSYYDVWGQGTLVTVSS
notes: also called PD1-26; not shown: murine Fc (mouse IgG1a) domain
B5: anti-PD-1 scFv-Fc clone 23 (scFv linked to murine Fc) (Fc fusion)
chain: QAVLTQPPSMSEAPRQRVTISCSGSSSNIGNNAVNWYQQLPGKAPKLLIYYNDLLSSGVSDRFSGSKSGTSASLAISGLQSEDEADYYCAAWDDSVNGYVFGTGTKVTVLGGSRGGGGSGGGGSGGGGSEVQLVQSGAEVKKPGDSVKVSCKASGYTFTRFGFSWVRQAPGQGLEWMGWISVNNGNTKYAQKYQGRVTMTTDTSTSTAYMELRSLRSDDTAVYYCARYMYGRRDSWGQGTLVTVSS
notes: also called PD1-23; not shown: murine Fc (mouse IgG1a) domain
B6: anti-PD-1 scFv-Fc clone 40 (scFv linked to murine Fc) (Fc fusion)
chain: QSVLTQPPSASGTPGQRVTISCSGSRSNIGENTVNWYQQLPGTAPKLLIYSNNQRPSGVPDRFSGSKSGTSASLAISGLHSDDEADYFCAAWDDRLNGYVFGTGTKVTVLGGGGGSGGGGSGGGGSQVQLVQSGPEVKKPGASVKVSCKASGYTFTNYGFTWVRQAPGQGLEWMGWIGAQKGDTEYAQKFQGRVTMTTDTSTSTVYLELRSLRSDDTAVYYCARSQGVPFDSWGQGTLVTVSS
notes: also called PD-1-40; not shown: murine Fc (mouse IgG1a) domain

molecular target: T1, human PD-1 on human T cells (human, UniProt Q15116 25-288); experiment: flow cytometry, 1 µg/ml antibody, human T cells overexpressing human PD-1, goat anti-human Ig FITC
T1 construct: whole, on cells; In the functional rows it is the PD-1 of the transduced human peripheral blood T cells; also called PD-1 T cells; human T cells modified to overexpress human PD-1
Excerpt: Flow cytometry was used to detect bound antibody using a goat anti-human Ig FITC conjugated antibody. […] Data shown is representative of one experiment.

T1 sequence (Q15116 25-288): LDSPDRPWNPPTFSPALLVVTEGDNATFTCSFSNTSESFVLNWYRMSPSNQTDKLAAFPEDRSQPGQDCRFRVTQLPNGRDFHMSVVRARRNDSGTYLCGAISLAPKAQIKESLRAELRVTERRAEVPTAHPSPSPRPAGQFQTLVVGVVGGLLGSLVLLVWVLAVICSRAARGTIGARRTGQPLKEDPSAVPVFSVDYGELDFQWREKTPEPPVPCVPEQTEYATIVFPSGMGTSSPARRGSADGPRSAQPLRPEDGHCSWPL

Row | percent of PD-1 human T cells bound [%] | Binder
1 | 78 | B1
2 | 67 | B2
3 | 51 | B3

molecular target: human PD-1 monomer (human, UniProt Q15116 25-167, limits assumed); experiment: ELISA on PD-1 monomer (FIG. 1)
Excerpt: ET901 ScFv-Fc (mouse IgG1 Fc) served as the negative control.

human PD-1 monomer, sequence (Q15116 25-167 limits assumed): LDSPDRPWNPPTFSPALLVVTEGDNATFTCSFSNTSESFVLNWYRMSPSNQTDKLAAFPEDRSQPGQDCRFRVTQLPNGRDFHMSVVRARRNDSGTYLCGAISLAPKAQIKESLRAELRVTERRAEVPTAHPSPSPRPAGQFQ

Row | binding result | Binder
4 | binds | B4
5 | binds | B5
6 | binds | B6
